The target of one assay is T1, FcγRIa (human, UniProt P12314 16-292).
T1 construct: extracellular domain; also called FcgRI; 1a
In words: SPR, captured antibody; relative to GpH7-A5/GpH7-B3/GpL16-k0. For orientation: SPR reads the build-up and loss of mass on a sensor chip optically.

A further assay has as its target T2, FcγRIIb (human, UniProt P31994 43-217).
T2 construct: extracellular domain; also called FcgRIIb; 2b
T2 sequence (looked up): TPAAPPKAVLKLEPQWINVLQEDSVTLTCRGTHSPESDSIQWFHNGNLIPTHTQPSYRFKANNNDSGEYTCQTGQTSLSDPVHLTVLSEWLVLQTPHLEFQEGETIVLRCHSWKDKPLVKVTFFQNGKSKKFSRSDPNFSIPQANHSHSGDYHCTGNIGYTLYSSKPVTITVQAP
The assay is described as above.

This passage reports He/Con_1a and He/Con_2b results from US20180155451A1 (published 2018).

T1 sequence (P12314 16-292): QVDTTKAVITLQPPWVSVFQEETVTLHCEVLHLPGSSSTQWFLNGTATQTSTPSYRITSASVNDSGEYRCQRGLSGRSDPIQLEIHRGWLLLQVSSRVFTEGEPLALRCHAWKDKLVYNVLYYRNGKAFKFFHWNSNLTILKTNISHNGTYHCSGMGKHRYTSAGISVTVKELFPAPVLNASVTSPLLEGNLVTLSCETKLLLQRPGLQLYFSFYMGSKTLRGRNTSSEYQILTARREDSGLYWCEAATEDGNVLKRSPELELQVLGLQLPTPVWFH

B1: GpH7-A5/GpH7-B3 variant (H268_06M)/GpL16-k0 (antibody, human IgG1, kappa)
heavy 1: not shown
heavy 2: not shown
light: DIVMTQSPLSLPVTPGEPASISCQASESLVHSNRNTYLHWYLQKPGQSPQLLIYKVSNRFSGVPDRFSGSGSGTDFTLKISRVEAEDVGVYYCSQNTHVPPTFGQGTKVEIERTVAAPSVFIFPPSDEQLKSGTASVVCLLNNFYPREAKVQWKVDNALQSGNSQESVTEQDSKDSTYSLSSTLTLSKADYEKHKVYACEVTHQGLSSPVTKSFNRGEC
notes: IgG1 heterodimer, mutation in the GpH7-B3 chain only; also called He Ab
Regarding B1, the He/Con_1a with FcγRIa is 105 relative, HeCon Ab = 100. The He/Con_2b with FcγRIIb is 65.7 relative, HeCon Ab = 100.

B2: GpH7-A5/GpH7-B3 variant (E269_06M)/GpL16-k0 (antibody, human IgG1, kappa)
heavy 1: not shown
heavy 2: not shown
light: B1 light
notes: as for B1
As for B2, the He/Con_1a with FcγRIa is 104 relative, HeCon Ab = 100. The He/Con_2b with FcγRIIb is 46.7 relative, HeCon Ab = 100.

B3: GpH7-A5/GpH7-B3 variant (E269_08L)/GpL16-k0 (antibody, human IgG1, kappa)
heavy 1: not shown
heavy 2: not shown
light: B1 light
notes: as for B1
For B3, in the assay with FcγRIa, the He/Con_1a was 104 relative, HeCon Ab = 100. Moreover, in the assay with FcγRIIb, the He/Con_2b was 42.9 relative, HeCon Ab = 100.

B4: GpH7-A5/GpH7-B3 variant (E269_13S)/GpL16-k0 (antibody, human IgG1, kappa)
heavy 1: not shown
heavy 2: not shown
light: B1 light
notes: as for B1
Consider B4, for which the He/Con_1a with FcγRIa is 103 relative, HeCon Ab = 100. In the assay with FcγRIIb, the He/Con_2b is 47.8 relative, HeCon Ab = 100.

B5: GpH7-A5/GpH7-B3 variant (E269_07I)/GpL16-k0 (antibody, human IgG1, kappa)
heavy 1: not shown
heavy 2: not shown
light: B1 light
notes: as for B1
For the molecule B5, in the assay with FcγRIa, the He/Con_1a is 103 relative, HeCon Ab = 100. For the same molecule, in the assay with FcγRIIb, the He/Con_2b is 43.9 relative, HeCon Ab = 100.

B6: GpH7-A5/GpH7-B3 variant (G237_05P)/GpL16-k0 (antibody, human IgG1, kappa)
heavy 1: not shown
heavy 2: not shown
light: B1 light
notes: as for B1
For the molecule B6, in the assay with FcγRIa, the He/Con_1a was 44.5 relative, HeCon Ab = 100. Also, the He/Con_2b with FcγRIIb was 24.6 relative, HeCon Ab = 100.

B7: GpH7-A5/GpH7-B3 variant (H268_12R)/GpL16-k0 (antibody, human IgG1, kappa)
heavy 1: not shown
heavy 2: not shown
light: B1 light
notes: as for B1
Consider B7, for which the He/Con_1a with FcγRIa is 106 relative, HeCon Ab = 100. For the same molecule, the He/Con_2b in the assay with FcγRIIb was 89.8 relative, HeCon Ab = 100.

B8: GpH7-A5/GpH7-B3 variant (E269_02A)/GpL16-k0 (antibody, human IgG1, kappa)
heavy 1: not shown
heavy 2: not shown
light: B1 light
notes: as for B1
On to B8, for which the He/Con_1a with FcγRIa was 104 relative, HeCon Ab = 100. Moreover, the He/Con_2b in the assay with FcγRIIb was 49.9 relative, HeCon Ab = 100.

B9: GpH7-A5/GpH7-B3 variant (G236_08L)/GpL16-k0 (antibody, human IgG1, kappa)
heavy 1: not shown
heavy 2: not shown
light: B1 light
notes: as for B1
As to B9, the He/Con_1a in the assay with FcγRIa is 79.6 relative, HeCon Ab = 100. In addition, in the assay with FcγRIIb, the He/Con_2b was 26.8 relative, HeCon Ab = 100.

B10: GpH7-A5/GpH7-B3 variant (E269_19Q)/GpL16-k0 (antibody, human IgG1, kappa)
heavy 1: not shown
heavy 2: not shown
light: B1 light
notes: as for B1
As to B10, in the assay with FcγRIa, the He/Con_1a is 105 relative, HeCon Ab = 100. The He/Con_2b in the assay with FcγRIIb is 44.3 relative, HeCon Ab = 100.

B11: GpH7-A5/GpH7-B3 variant (H268_04F)/GpL16-k0 (antibody, human IgG1, kappa)
heavy 1: not shown
heavy 2: not shown
light: B1 light
notes: as for B1
For the molecule B11, the He/Con_1a in the assay with FcγRIa was 106 relative, HeCon Ab = 100. Further, in the assay with FcγRIIb, the He/Con_2b is 89.6 relative, HeCon Ab = 100.

B12: GpH7-A5/GpH7-B3 variant (G236_20W)/GpL16-k0 (antibody, human IgG1, kappa)
heavy 1: not shown
heavy 2: not shown
light: B1 light
notes: IgG1 heterodimer, G236W in the GpH7-B3 chain only; also called GpH7-A5/GpH7-B3-03-20W/GpL16-k0; He Ab
For the molecule B12, the He/Con_1a with FcγRIa is 105 relative, HeCon Ab = 100. Further, the He/Con_2b with FcγRIIb is 58.2 relative, HeCon Ab = 100.

B13: GpH7-A5/GpH7-B3 variant (G236_07I)/GpL16-k0 (antibody, human IgG1, kappa)
heavy 1: not shown
heavy 2: not shown
light: B1 light
notes: as for B1
Turning to B13, in the assay with FcγRIa, the He/Con_1a was 87.5 relative, HeCon Ab = 100. Also, the He/Con_2b in the assay with FcγRIIb was 31 relative, HeCon Ab = 100.

B14: GpH7-A5/GpH7-B3 variant (G236_04F)/GpL16-k0 (antibody, human IgG1, kappa)
heavy 1: not shown
heavy 2: not shown
light: B1 light
notes: as for B1
On to B14, for which, in the assay with FcγRIa, the He/Con_1a was 96.4 relative, HeCon Ab = 100. Also, in the assay with FcγRIIb, the He/Con_2b was 39.3 relative, HeCon Ab = 100.

B15: GpH7-A5/GpH7-B3 variant (E269_05P)/GpL16-k0 (antibody, human IgG1, kappa)
heavy 1: not shown
heavy 2: not shown
light: B1 light
notes: as for B1
For the molecule B15, the He/Con_1a with FcγRIa was 102 relative, HeCon Ab = 100. Further, the He/Con_2b with FcγRIIb is 52.6 relative, HeCon Ab = 100.

B16: GpH7-A5/GpH7-B3 variant (G237_03V)/GpL16-k0 (antibody, human IgG1, kappa)
heavy 1: not shown
heavy 2: not shown
light: B1 light
notes: as for B1
As to B16, in the assay with FcγRIa, the He/Con_1a is 78.5 relative, HeCon Ab = 100. Besides, in the assay with FcγRIIb, the He/Con_2b is 61.4 relative, HeCon Ab = 100.

B17: GpH7-A5/GpH7-B3 variant (E269_16H)/GpL16-k0 (antibody, human IgG1, kappa)
heavy 1: not shown
heavy 2: not shown
light: B1 light
notes: as for B1
For B17, the He/Con_1a in the assay with FcγRIa was 106 relative, HeCon Ab = 100. For the same molecule, the He/Con_2b in the assay with FcγRIIb is 38.5 relative, HeCon Ab = 100.

B18: GpH7-A5/GpH7-B3 variant (G236_02A)/GpL16-k0 (antibody, human IgG1, kappa)
heavy 1: not shown
heavy 2: not shown
light: B1 light
notes: as for B1
With B18, the He/Con_1a with FcγRIa is 100 relative, HeCon Ab = 100. In addition, the He/Con_2b with FcγRIIb is 96.5 relative, HeCon Ab = 100.

B19: GpH7-A5/GpH7-B3 variant (L234_06M)/GpL16-k0 (antibody, human IgG1, kappa)
heavy 1: not shown
heavy 2: not shown
light: B1 light
notes: as for B1
B19: the He/Con_1a in the assay with FcγRIa was 104 relative, HeCon Ab = 100. For the same molecule, in the assay with FcγRIIb, the He/Con_2b was 78.5 relative, HeCon Ab = 100.

B20: GpH7-A5/GpH7-B3 variant (E269_04F)/GpL16-k0 (antibody, human IgG1, kappa)
heavy 1: not shown
heavy 2: not shown
light: B1 light
notes: as for B1
As for B20, the He/Con_1a with FcγRIa was 103 relative, HeCon Ab = 100. For the same molecule, the He/Con_2b with FcγRIIb was 45 relative, HeCon Ab = 100.

B21: GpH7-A5/GpH7-B3 variant (L234_01G)/GpL16-k0 (antibody, human IgG1, kappa)
heavy 1: not shown
heavy 2: not shown
light: B1 light
notes: as for B1
B21: the He/Con_1a in the assay with FcγRIa is 96.1 relative, HeCon Ab = 100. For the same molecule, the He/Con_2b with FcγRIIb is 50.7 relative, HeCon Ab = 100.

B22: GpH7-A5/GpH7-B3 variant (G236_11K)/GpL16-k0 (antibody, human IgG1, kappa)
heavy 1: not shown
heavy 2: not shown
light: B1 light
notes: as for B1
Consider B22, for which the He/Con_1a with FcγRIa was 71 relative, HeCon Ab = 100. In addition, the He/Con_2b in the assay with FcγRIIb was 49.8 relative, HeCon Ab = 100.
